Measurements reported in paper PMC9048828, “The Acetyltransferase RibT From Bacillus subtilis Affects in vivo Dynamics of the Multimeric Heavy Riboflavin Synthase Complex” (Frontiers in Microbiology, 2022).
Changes are numbered by the printed parent chain. Numbers in names are those of the source.

B1: Strep-RibH (enzyme, Bacillus subtilis, UniProt P11998 1-154, looked up)
chain: MNIIQGNLVGTGLKIGIVVGRFNDFITSKLLSGAEDALLRHGVDTNDIDVAWVPGAFEIPFAAKKMAETKKYDAIITLGTVIRGATTHYDYVCNEAAKGIAQAANTTGVPVIFGIVTTENIEQAIERAGTKAGNKGVDCAVSAIEMANLNRSFE
notes: RibH, lumazine synthase of Bacillus subtilis; printed mass of Strep-RibH 17.9 kDa; Cloning and purification are described in the Supplementary Data; The printed mass fits the whole protein with its tag (surmised); also called wt-like Strep-RibH; source: E. coli BL21 (DE3) Star, purified (Strep-Tactin, SEC); also coproduced with His6-RibE; not shown: Strep tag, N-terminal, kept; copies: 60
B2: Strep-RibH^K29R (enzyme, Bacillus subtilis, UniProt P11998 1-154, looked up)
chain: B1 chain with K29R
notes: RibH, lumazine synthase of Bacillus subtilis, with K29R; printed mass 17.9 kDa; Cloning and purification are described in the Supplementary Data; the tag is likely N-terminal as in Strep-RibH (surmised); source: E. coli BL21 (DE3) Star, purified (Strep-Tactin, SEC); also coproduced with His6-RibE; copies: 60
B3: Strep-RibH^K29E (enzyme, Bacillus subtilis, UniProt P11998 1-154, looked up)
chain: B1 chain with K29E
notes: RibH, lumazine synthase of Bacillus subtilis, with K29E; printed mass 17.9 kDa; Cloning and purification are described in the Supplementary Data; source: E. coli BL21 (DE3) Star, purified (Strep-Tactin, SEC); also coproduced with His6-RibE; not shown: Strep tag, N-terminal, kept; copies: 60

Molecular target: the molecule itself
Test: pull-down + SEC; coproduced in E. coli BL21 Star, purified by Strep-Tactin affinity chromatography followed by SEC; pooled 60-mer peak (~1 MDa) analysed by SDS-PAGE

Row | Protein | stoichiometry N
1 | B1 | 60
2 | B2 | 60
3 | B3 | 60
